From the DeepSol protein solubility set

Experiment: soluble on expression in E. coli; label from the status in PepcDB or PDB records

MGSDKIHHHHHHMHISNMDGLDILSLKILVSLYENKSATYVSKALDIPAPKISRSLKNLREIFGDELFIRRKYGLFPNEFATHLYPIAKEAIECTDKFHKARAANANLVKTHIEIAAPGLIAYAFPKALMQAIKDEQKLMHINITPWSMHTTQDIINGDTTLGICCNKSTADVAAFGDKLLTTTLQSMDKVYLLASRNHPIFKREITLETIAEYPYVNTDLGNPSSKLSPYQEFCLKSNIKLNTEITITSISSLFEYLGESQALSLLPYRVVYEMVSDVAELHTCQLSQLEAERLYAHAEAPTIFLVQKNQPNKVNDDLVWLSGQIKKIVDHII
soluble on expression in E. coli: not soluble

MNAVAPLIPCIVSGGSGTRLWPVSRESMPKPFMRLADDQSLLQKTFLRIAGLPDVARLLTVTNRDLLFRTLDDYRAVNRSGLAQDLLLEPVGRNTAPAIAAAALHVQEHFGDQAQLLILPADHLIRDEQAFAAAVAEARGLAAQGYLVTFGITPERAETGFGYIEQGAPLGNGFRVARFVEKPDQATAQSYLDSGKYLWNAGMFCFQAATVLQELERHAPEVLIAARAALADGSSLENGQCRQRELAAGAFAEAPDISVDYALMERSDKVAVVPCSIGWSDIGSWQALRELSAADENGNQVRGESVLHDVSNCYIDSPKRLVGAVGVHDLIIVDTPDALLVADAARSQDVKFVAQELKRRGHDAFRLHRTVSRPWGTYTVLEEGRRFKIKRIVVRPKASLSLQMHHHRSEHWIVVSGMALVENGEREFLLNTNESTFIPAGHSHRLSNPGIIDLVMIEVQSGEYLGEDDIVRFNDIYGRAPASDEKK
soluble on expression in E. coli: not soluble
